Earlier results, collected in patent publication US6126956A, “Subcutaneous implant” (priority 1998, dated 2000).
Where two headings read alike, the source gives them in different places.

Details: coated EVA with hole in one face, or coated hemisphere with exposed cavity

Substance | release kinetics from prior polymer devices | release kinetics from prior polymer devices (listed as insulin)
Insulin | near constant release rates | zero order kinetics
albumin | zero order kinetics | 
